# Test: Control: unseeded Aβ1–40 solution checked for fibrils by TEM or AFM
# Assay type: physicochemical
# Details: unseeded 50 µM Aβ1–40 solution, 30 min incubation
substance,measurement,value
"Aβ1–40: 40-residue β-amyloid peptide, made by solid-phase synthesis; also literature fibrils of unspecified polymorph",fibril formation in unseeded solution,no fibrils were observed

# Reference: article PMC3686096 (Journal of the American Chemical Society, 2013)
